Source: publication PMC4718513

Molecular target: VAPB-MSP domain, MSP(1–125) (human) (UniProt O95292)
Assay: NMR titration; 1H-15N HSQC of 15N-labelled VAPB protein (50 uM) with unlabelled NS5B or Eph protein added at different molar ratios (increment 0.5 for C-linker and Eph); 10 mM phosphate buffer pH 6.8, 25 C, 800 MHz; CSD tracings fitted with a one binding site model for residue-specific Kd

Sequence of UniProt O95292 (O95292 1-125): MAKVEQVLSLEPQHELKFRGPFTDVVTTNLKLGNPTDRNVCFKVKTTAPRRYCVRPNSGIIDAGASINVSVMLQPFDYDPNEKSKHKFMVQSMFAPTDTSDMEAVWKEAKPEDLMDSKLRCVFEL

NS5B C-linker peptide (531–570)
Kd: 8.8 µM | residue-specific Kd (MSP residue 53C): 1.4 µM | residue-specific Kd (MSP residue 79D): 13.6 µM | residue-specific Kd (MSP residue 82E): 12.8 µM | residue-specific Kd (MSP residue 90V): 9 µM | residue-specific Kd (MSP residue 116D): 5.7 µM | residue-specific Kd (MSP residue 118K): 2.9 µM | residue-specific Kd (MSP residue 119L): 16 µM
